Ends that are not written are not given here.
Assays:
Akt1 [1] = molecular target: T1, Akt1 (UniProt P31749 1-480); assay: biotin peptide on streptavidin plate, cell lysate, detection with Akt1 antibody
T1 construct: Endogenous protein detected with an Akt1 antibody (LF-MA0245); also called endogenous Akt1
Description: To confirm the binding affinity between Akt1 and Akt1 motif-containing FCHo1 amino acid sequence-derived peptides, biotin was conjugated to peptides to complete the synthetization. The peptides were reacted and attached to on the streptavidin-attached plate. After treating with the cell lysates, the binding affinity of the peptide and Akt1 was confirmed by the Akt1 antibody. The experiment process and its result of confirming in vitro binding affinity of Akt1 according to respective peptides derived from FCHo1 binding sites are illustrated in FIG. 28.

Akt1 [2] = molecular target: T1, Akt1; assay: immunofluorescence and PLA, A549 cells
Experimental: A549 cells were placed in 8-well chamber cover glasses or high-precision cover glasses and were fixed with 3% paraformaldehyde for 10 minutes at room temperature, permeabilized with 0.5% Triton® X-100 (Sigma-Aldrich) for 5 min, blocked for 30 minutes. Then, the cells were incubated with primary or secondary antibodies in blocking solution (PBS with 0.1% saponin and 3% BSA). Alexa Fluor 647 conjugated anti-rabbit secondary antibody and an oxygen scavenging system (0.5 mg/ml glucose oxidase, 40 μg/ml catalase, 10% glucose, pH 7.4) were used for stochastic optical reconstruction microscopy (dSTORM) imaging. Before imaging, 30 mM mercaptoethylamine ([…]; Sigma) was added to obtain a final thiol concentration of 10-200 mM. All dSTORM and SIM images were obtained from Carl Zeiss ELYRA PS.1 (super-resolution microscopy), and all CLSM images were obtained from the Carl Zeiss LSM710 (confocal laser scanning microscope).
Immunofluorescence and PLA assays confirmed whether the F-BAR domain binds to Akt1 at the ICB and plasma membrane and FCHo1 and Akt1 interact in the midbody. […] Interaction of FCHo1 and Akt1 in the midbody was confirmed by PLA, and Calmodulin 1 was used as an ICB marker. The results are illustrated in FIG. 17.

[3] = molecular target: T2, FCHo1-C-3×DDK (full-length wild-type FCHo1 with C-terminally fused 3×FLAG tag) (human, UniProt O14526 1-889); assay: co-immunoprecipitation with anti-FLAG antibody
T2 construct: Expressed in A549 cells and pulled down with anti-FLAG gel; also called FCHo1-FLAG; wt FCHo1; not shown: C-terminal 3×DDK (3×FLAG) tag of the pCMV6-C-3×DDK vector
T2 sequence (looked up): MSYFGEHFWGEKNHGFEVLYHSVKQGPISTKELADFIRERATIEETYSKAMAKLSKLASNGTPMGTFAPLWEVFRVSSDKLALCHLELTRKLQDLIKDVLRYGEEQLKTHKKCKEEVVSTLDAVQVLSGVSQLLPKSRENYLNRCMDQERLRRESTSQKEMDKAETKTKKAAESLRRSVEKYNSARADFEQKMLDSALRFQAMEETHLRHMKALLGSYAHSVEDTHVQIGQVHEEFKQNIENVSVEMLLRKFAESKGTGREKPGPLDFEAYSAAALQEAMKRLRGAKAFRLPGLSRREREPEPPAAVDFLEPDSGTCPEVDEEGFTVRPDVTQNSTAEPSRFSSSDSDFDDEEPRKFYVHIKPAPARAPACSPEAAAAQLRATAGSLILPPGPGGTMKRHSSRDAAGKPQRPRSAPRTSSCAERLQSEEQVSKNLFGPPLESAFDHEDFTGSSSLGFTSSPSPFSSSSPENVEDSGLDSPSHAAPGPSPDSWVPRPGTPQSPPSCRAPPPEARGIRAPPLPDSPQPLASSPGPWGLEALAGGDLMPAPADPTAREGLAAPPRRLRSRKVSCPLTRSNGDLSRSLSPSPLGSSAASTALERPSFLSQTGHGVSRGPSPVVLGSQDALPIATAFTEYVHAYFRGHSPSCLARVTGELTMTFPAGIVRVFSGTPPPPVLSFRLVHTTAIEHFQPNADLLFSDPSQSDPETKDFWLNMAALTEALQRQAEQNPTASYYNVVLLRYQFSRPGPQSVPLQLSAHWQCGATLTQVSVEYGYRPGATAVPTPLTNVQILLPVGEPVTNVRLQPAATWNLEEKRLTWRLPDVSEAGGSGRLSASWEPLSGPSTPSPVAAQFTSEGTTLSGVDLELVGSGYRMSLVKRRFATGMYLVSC

T1 sequence (P31749 whole entry): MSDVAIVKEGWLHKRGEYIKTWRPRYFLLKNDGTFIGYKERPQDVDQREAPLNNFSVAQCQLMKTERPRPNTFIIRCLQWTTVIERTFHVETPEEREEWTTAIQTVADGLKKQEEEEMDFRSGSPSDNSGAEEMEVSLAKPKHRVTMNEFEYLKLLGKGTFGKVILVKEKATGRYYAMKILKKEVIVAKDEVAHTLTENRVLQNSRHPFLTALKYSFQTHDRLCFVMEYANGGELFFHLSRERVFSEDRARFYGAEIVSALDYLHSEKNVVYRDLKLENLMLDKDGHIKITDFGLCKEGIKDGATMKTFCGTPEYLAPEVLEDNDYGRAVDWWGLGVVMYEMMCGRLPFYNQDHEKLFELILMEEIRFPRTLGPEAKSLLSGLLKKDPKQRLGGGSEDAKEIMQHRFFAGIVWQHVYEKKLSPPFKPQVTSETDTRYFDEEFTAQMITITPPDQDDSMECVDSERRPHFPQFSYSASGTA

Binder | binding result (Akt1 [1]) | further results
RRLRSRKVSC (also: biotin conjugated, position not given here, Attached to a streptavidin plate by its biotin) [peptide 562-571 of FCHo1 (RRLRSRKVSC), biotin-conjugated] | binds | –
PPRRLRSRKVSC (also: biotin conjugated, position not given here, Attached to a streptavidin plate by its biotin) [peptide 560-571 of FCHo1 (PPRRLRSRKVSC), biotin-conjugated] | binds | –
C-terminal (CT) fragment of FCHo1 cleaved at R563 (other, human, UniProt O14526 564-889, looked up, Fragment in cells, seen by immunofluorescence and PLA with the α584-804 antibody) LRSRKVSCPLTRSNGDLSRSLSPSPLGSSAASTALERPSFLSQTGHGVSRGPSPVVLGSQDALPIATAFTEYVHAYFRGHSPSCLARVTGELTMTFPAGIVRVFSGTPPPPVLSFRLVHTTAIEHFQPNADLLFSDPSQSDPETKDFWLNMAALTEALQRQAEQNPTASYYNVVLLRYQFSRPGPQSVPLQLSAHWQCGATLTQVSVEYGYRPGATAVPTPLTNVQILLPVGEPVTNVRLQPAATWNLEEKRLTWRLPDVSEAGGSGRLSASWEPLSGPSTPSPVAAQFTSEGTTLSGVDLELVGSGYRMSLVKRRFATGMYLVSC | – | binding result (Akt1 [2]): binds
CT-fragment (564-889aa) of FCHo1-HA (other, human, UniProt O14526 564-889, looked up, Cleavage product of FCHo1-HA in the cells, seen on the blot of the co-IP; not shown: C-terminal 3×HA tag) LRSRKVSCPLTRSNGDLSRSLSPSPLGSSAASTALERPSFLSQTGHGVSRGPSPVVLGSQDALPIATAFTEYVHAYFRGHSPSCLARVTGELTMTFPAGIVRVFSGTPPPPVLSFRLVHTTAIEHFQPNADLLFSDPSQSDPETKDFWLNMAALTEALQRQAEQNPTASYYNVVLLRYQFSRPGPQSVPLQLSAHWQCGATLTQVSVEYGYRPGATAVPTPLTNVQILLPVGEPVTNVRLQPAATWNLEEKRLTWRLPDVSEAGGSGRLSASWEPLSGPSTPSPVAAQFTSEGTTLSGVDLELVGSGYRMSLVKRRFATGMYLVSC | – | binding result [3]: no binding
